This note sets out measurements from the supplement of paper PMC12042874.

The nature of the data set: amyloid nucleation score (Sup35N fusion, yeast selection) (log enrichment); library NNK2; higher = more nucleation; inactive = no reads after selection. The gist of the method: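 Using DiMSum, nucleation scores were taken as the log enrichment of output over input reads, centred on the mode score of non-aggregating sequences. The input and output reads came from Illumina sequencing of plasmid inserts, with sequences under 100 input reads excluded. The yeast were psi-negative, expressed Sup35N fused to peptides of 20 random codons, were induced with 100 μM copper sulfate for 24 hours, and were grown 7 days at 30°C on medium lacking adenine and uracil.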

± gives the uncertainty stated by the source.

On to YRLIYFVVLFEFLSVNR, for which the amyloid nucleation score was -0.089 ± 0.79.

The substance RATKYFLSFCSLKFKFCHYF gave an amyloid nucleation score of -0.658 ± 0.32.

For HRVRIINCKKIWGNALWVRL, the amyloid nucleation score came to 1.15 ± 0.14.

In turn, YVPYLLTLCCRCSSLGFR showed an amyloid nucleation score of -1.08 ± 1.1.

As for GCYTET, the amyloid nucleation score was 0.729 ± 0.52.

The substance MRQWEQNSCYDLPAYLWNVG returned an amyloid nucleation score of -0.079 ± 0.56.

The substance RSLIKSRVIWGRKCSSRFIR had an amyloid nucleation score of -0.64 ± 0.32.

As for SLMLGVYHLFTCGTQTRCYS, the amyloid nucleation score was -0.71 ± 1.

For the substance PPLLSISYKRRRVMFHFHVF, the amyloid nucleation score entry was “inactive”.

GNLWGYECVYINKQICGSSR displayed an amyloid nucleation score of 3.49 ± 0.05.

FLGLYKRYGVEVGLYMLILV: the amyloid nucleation score is -0.742 ± 0.24.

Substance ISFSSTSIHFGD displayed an amyloid nucleation score of 1.04 ± 0.11.

Take FGFKCSAVITICPGPSRLGS: the amyloid nucleation score was 5.12 ± 0.081.

As for TSSWRVWAYQSAAANMHTDL, the amyloid nucleation score is 5.01 ± 0.06.

HTLGIWLKREPWGMMYGLRG yielded an amyloid nucleation score of 0.165 ± 1.

As to FCSPCSFLINSY, the amyloid nucleation score was found to be 6.514 ± 0.048.

NARQSLADSSAVRPDARTLI yielded an amyloid nucleation score of 0.456 ± 0.45.

SVDNGYVFSLVDPREYRFHL came in with an amyloid nucleation score of -0.813 ± 0.76.

Consider HVHKL, for which the amyloid nucleation score is -0.403 ± 0.39.

Substance CARIWLRTWGKIRA returned an amyloid nucleation score of 0.092 ± 1.1.

Regarding YSELIVTVIYKSTSSVRISC, the amyloid nucleation score was -0.285 ± 0.33.

The substance KVLRCYGDHFHHANSRTCLR had an amyloid nucleation score of -1.08 ± 0.76.

ARPVDMHTQTYALL registered an amyloid nucleation score of -0.284 ± 1.1.

AGCVVNHTPRLLGRSTKRLK had an amyloid nucleation score of 3.1 ± 0.062.

Substance NTLNVWACVGLLLQ showed an amyloid nucleation score of 6.48 ± 0.075.

NHRQDKLQNHVSGLPSIGSL showed an amyloid nucleation score of 0.059 ± 0.36.

The substance IGLVVFSAL displayed an amyloid nucleation score of 2.56 ± 0.11.

CRDLKFYAGTRWGKCCMYSA returned an amyloid nucleation score of -0.476 ± 0.32.

With VDHQVFNHDHCGRIYVLCLG, the amyloid nucleation score is -0.322 ± 0.31.

ASAPEYHQVKIYIFQFTPRA had an amyloid nucleation score of 2.02 ± 0.094.

As to VSYFPYRDVLGTINNV, the amyloid nucleation score was found to be 0.729 ± 0.54.

Take VMMIQTVQFRLTSKSSGMSR: the amyloid nucleation score was 5.259 ± 0.043.

Consider WFVTNGCFYSLCLTHG, for which the amyloid nucleation score was determined as 5.996 ± 0.028.

Substance SNSMLASIVNHPSVSVMFFV returned an amyloid nucleation score of 6.035 ± 0.047.

KMSYVYP gave an amyloid nucleation score of -0.622 ± 0.41.

As to GSSNGRALLYCITLKIMGIV, the amyloid nucleation score was determined as 0.769 ± 0.4.

Regarding YNVGALASVSRFRDGFGLS, the amyloid nucleation score came to 1.57 ± 0.1.

On to GNFWAFISRRQSRGFLDSAL, for which the amyloid nucleation score is -0.412 ± 1.1.

With GGTQLRTG, the amyloid nucleation score was -0.961 ± 1.1.

The substance FLDPTVFSYLQVTCDIVDLH gave an amyloid nucleation score of -0.113 ± 1.1.

In turn, SVSCIKFIHSLAEYGMSKEN had an amyloid nucleation score of 0.697 ± 0.16.

For VIISCTYVNY, the amyloid nucleation score was -0.002 ± 0.4.

QHYRSYTSILVCSYFYFDAQ: the amyloid nucleation score came out at 3.12 ± 0.12.

Consider NSVAIVQIVGASAWRGNLL, for which the amyloid nucleation score came out at 5.128 ± 0.046.

Regarding MHSFLFLVIAM, the amyloid nucleation score entry was “inactive”.

For NRGSAPYYVTICYCNLC, the amyloid nucleation score is 8.578 ± 0.035.

With IFLIK, the amyloid nucleation score is -0.249 ± 1.1.

AHHRCHWYECVMMPRHGPRP came in with an amyloid nucleation score of 1.26 ± 0.33.

In turn, YVGSTLAFNNKIGGDYNMKS displayed an amyloid nucleation score of -0.54 ± 1.1.

Consider RPKYIWDCWCTCFHFS, for which the amyloid nucleation score is 3.63 ± 0.088.

TTLYGGAFIGIGYVGRHTEN showed an amyloid nucleation score of 3.21 ± 0.15.

Turning to STSKDLMYDCL, the amyloid nucleation score result is “inactive”.

Regarding SFSANADYGWNDRTNFFSVF, the amyloid nucleation score result was “inactive”.

Consider KVFRSVGMFVCP, for which the amyloid nucleation score came to 1 ± 0.29.

Turning to IFSRIDTQCGMMSISQQ, the amyloid nucleation score is -0.364 ± 0.24.

The substance GTYAKSMLSSKVVAG displayed an amyloid nucleation score of 1.48 ± 0.18.

Turning to PEHYSGATRLVH, the amyloid nucleation score came to 0.42 ± 0.47.

Substance FSLCSLAEVAKKVTTLRRDG displayed an amyloid nucleation score of -0.277 ± 1.1.

Regarding TCIFVNDFSMSGWDCMLFY, the amyloid nucleation score turned out to be 4.4 ± 0.062.

MLAWWPFRKWRVLIRGSRGF yielded an amyloid nucleation score of 1.5 ± 0.35.

On to ANLWNEGFPLNGLHDNGIDQ, for which the amyloid nucleation score is -0.379 ± 0.49.

On to LTVMSFTNNLHYLF, for which the amyloid nucleation score is -0.552 ± 0.48.

In the case of CEALQSW, the amyloid nucleation score was 0.699 ± 0.34.

The substance STNVMLLSFSHMYHSYVLLG showed an amyloid nucleation score of -0.261 ± 0.63.

AFASYIKNDPPGEVPMAEL came in with an amyloid nucleation score of 0.258 ± 0.24.

The substance SMIYIGIFS displayed an amyloid nucleation score of 5.281 ± 0.031.

RCLGLCFICEYDFGVMRYSA: the amyloid nucleation score is -0.633 ± 0.48.

Consider TLTLSTIHWNLY, for which the amyloid nucleation score is 6.13 ± 0.066.

Regarding KVFVAYGMAVMLFYICHSK, the amyloid nucleation score is 4.561 ± 0.037.

Substance WYWPCKGTREFKFNLYECSG showed an amyloid nucleation score of 0.517 ± 0.41.

Turning to YIVRNLVLLI, the amyloid nucleation score came out at 5.577 ± 0.036.

For YMFMIRSGFV, the amyloid nucleation score is -0.376 ± 0.37.

HDPRIYW displayed an amyloid nucleation score of 0.441 ± 0.27.

Regarding WVVLLFKCFFEVLMLPLKVI, the amyloid nucleation score was -0.29 ± 0.38.

As for WNIVVSYNDLFV, the amyloid nucleation score is -1.07 ± 0.76.

Substance HRVCLNTIGY came in with an amyloid nucleation score of -1.02 ± 0.32.

Regarding RKVRCRYSMT, the amyloid nucleation score turned out to be 0.142 ± 0.6.

With FDTRLSNFFPF, the amyloid nucleation score is -0.636 ± 0.76.

YSKTFTRRSWAHYTCHSVRL had an amyloid nucleation score of 0.12 ± 0.41.

Substance WYRTGMGNLLSRGDVDTVRT registered an amyloid nucleation score of 0.131 ± 0.55.

RSYDQVRSCHARMREDSNVQ returned an amyloid nucleation score of 4.61 ± 0.066.

Regarding SGAYSDGWYRQHFMVQL, the amyloid nucleation score result was “inactive”.

NYIRYLRVYYIVGDELRPGN gave an amyloid nucleation score of 8.026 ± 0.048.

Substance VNWLFACVELR yielded an amyloid nucleation score of 0.365 ± 0.36.

The substance MYIGELIAPVCCLRSQFTPC had an amyloid nucleation score of 5.18 ± 0.075.

Substance PVKIGMFPVGRWQFKDQFGF returned an amyloid nucleation score of -0.704 ± 0.44.

The substance VVGPFHFIVMMKVSKVRVKL yielded an amyloid nucleation score of 6.212 ± 0.039.

VKPHFRLGGNQNRPIPCSVS: the amyloid nucleation score was determined as 0.318 ± 0.45.

Consider WLIFLTVISISCCDQGVRF, for which the amyloid nucleation score stood at 7.401 ± 0.028.

In turn, DDFRQVKREDWHWSLSAVLF gave an amyloid nucleation score of 0.36 ± 0.62.

In turn, TYYSLSLVAIMGAR had an amyloid nucleation score of 1.82 ± 0.2.

NFCLVNLEWMRWSNLTDGLQ had an amyloid nucleation score of 5.34 ± 0.055.

Substance YWVSCHVALGMALKSVLVPC displayed an amyloid nucleation score of 0.009 ± 0.76.

MSMLPCGSVYFNTRNAYLWL came in with an amyloid nucleation score of 6.678 ± 0.065.

MTCRMCGADCPLA returned an amyloid nucleation score of 0.539 ± 0.66.

The substance WMRRAVAAND showed an amyloid nucleation score of 0.186 ± 0.54.

Regarding LGYCGM, the amyloid nucleation score result was “inactive”.

TLTYFLNSSWD gave an amyloid nucleation score of 1.93 ± 0.25.

Regarding ALCQYISSSYMWYSVMCELI, the amyloid nucleation score result was “inactive”.

As for GDAIANCIVVWYGHAMPARY, the amyloid nucleation score is 2.06 ± 0.12.

The substance PGIVRGPYYGNMVIFLLKMF showed an amyloid nucleation score of 2.89 ± 0.19.

With DCHSMQFVVSFNT, the amyloid nucleation score was -0.705 ± 1.1.

Substance TCILMLCQECVCTF yielded an amyloid nucleation score of 9.809 ± 0.051.

VVRLSSYNASTPLSVSFRRG returned an amyloid nucleation score of -0.171 ± 0.74.

Consider SHPDRTIDSGFDTMRDAIWT, for which the amyloid nucleation score was found to be 0.22 ± 0.63.

LITRVSSYCCWCLGFTIWAL gave an amyloid nucleation score of -0.77 ± 1.

With HGAVGCAS, the amyloid nucleation score is -0.002 ± 1.

With YKGEFFYWFKCVLYYKGNT, the amyloid nucleation score entry was “inactive”.

As for TYTMGRHNFVMSLSFFSHSA, the amyloid nucleation score was 4.861 ± 0.044.

The substance KLVMFVGIFSNT returned an amyloid nucleation score of 6.39 ± 0.085.

Take VYRLTRVISEWRSILVLVWT: the amyloid nucleation score is 0.328 ± 0.42.

In turn, RFCRVDKWEVRQGM had an amyloid nucleation score of 5.339 ± 0.051.

For QCTHPGLVVIYRSLAKDYLS, the amyloid nucleation score is -0.285 ± 0.48.

For KKVYVSDTIWMDYNNS, the amyloid nucleation score stood at 3.93 ± 0.064.

Substance VNYFVRGTVSK gave an amyloid nucleation score of 0.074 ± 0.74.

In turn, TYSGLKNARWEFWMKSFDYF returned an amyloid nucleation score of -1.12 ± 0.5.

LWILNNFGTIIFRTSHYKGV returned an amyloid nucleation score of 7.4 ± 0.078.

Consider VYCHRLNIILIGRVFCSEDI, for which the amyloid nucleation score stood at 0.062 ± 0.55.

FMHNHGPGLDTYAYGTR: the amyloid nucleation score is -1.13 ± 0.64.

Take TGWTFWGGCRWM: the amyloid nucleation score came out at 4.57 ± 0.12.

VNCCDFVVC registered an amyloid nucleation score of -0.063 ± 0.49.

Turning to GIFCSVGMLTVCLLVRDKLV, the amyloid nucleation score entry is “inactive”.

DVKWA registered an amyloid nucleation score of 1.1 ± 0.21.

For the substance DIFALYFA, the amyloid nucleation score was -1.16 ± 0.63.

In turn, LSKCHCNILCVLMTCMWHLY displayed an amyloid nucleation score of 0.333 ± 0.46.

On to LLLYEMFSKVGLLFPSYFKY, for which the amyloid nucleation score result was “inactive”.

For the substance IVLAYSKTPREVN, the amyloid nucleation score is -0.086 ± 0.65.

DPVRWRVKFFFYDSEVCGPL: the amyloid nucleation score is 2.73 ± 0.17.

FLMVVVGNVLPLSKCYALWY yielded an amyloid nucleation score of -0.007 ± 0.55.

As for SLVYL, the amyloid nucleation score came to 1.1 ± 0.13.

For the substance IQACYGFQSNDVPLISCT, the amyloid nucleation score is -1.78 ± 0.49.

Take ILAGSAFCLLCCVKAGWSDE: the amyloid nucleation score stood at 6.41 ± 0.086.

INMCNP showed an amyloid nucleation score of 2.89 ± 0.072.

On to CMFVIVKVCIVHGHIVSIAS, for which the amyloid nucleation score entry was “inactive”.

Turning to DKPTCETTV, the amyloid nucleation score was -0.659 ± 0.49.

In turn, VKWISMCSILSYRRG returned an amyloid nucleation score of -1.08 ± 0.78.

KRVLDSGFN displayed an amyloid nucleation score of -0.845 ± 1.

As for LPWHICLVHPR, the amyloid nucleation score is 1.81 ± 0.078.

Consider VVRVCRQGCLSNLSWCGWGE, for which the amyloid nucleation score was -0.1 ± 1.

For the substance YIQLGWGLSKTWSHLTGELA, the amyloid nucleation score stood at 2.34 ± 0.14.

Take GGQEIAYILTSVSSLSNPMW: the amyloid nucleation score stood at 3.24 ± 0.1.
